Test results as given in the supplement of paper PMC10724198.
± gives the standard deviation of the averaged measurements.

How the values were obtained:
Saccharomyces cerevisiae [1] = test: protein stability index of tFT-peptide fusion (C-terminal peptide) (PSI (0-1 scale)); higher = more stable (slower turnover)
Description: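 MPS profiling in S. cerevisiae of the tFT-X12 degron library: putative degron peptides plus stable controls, 12 aa, fused to the C-terminus of a sfGFP-mCherry timer. Cells are FACS-sorted into 8 mCherry/sfGFP bins and deep-sequenced. PSI runs from 0 (unstable) to 1 (stable). Backgrounds are wild type, das1Δ and doa10Δ at 30 °C, and wild type, das1Δ, cdc34-1 and cdc53-1 at 37 °C; 2-3 technical replicates each.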

Saccharomyces cerevisiae [2] = test: as above; conditions: genetic background: wild type; temperature: 30 C
[3] = genetic background: cdc34-1, temperature: 37 C
[4] = genetic background: cdc53-1, temperature: 37 C
[5] = genetic background: das1 deletion, temperature: 30 C
[6] = genetic background: das1 deletion, temperature: 37 C
[7] = genetic background: doa10 deletion, temperature: 30 C
[8] = genetic background: wild type, temperature: 30 C
[9] = genetic background: wild type, temperature: 37 C
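Further: PSI is a weighted mean of sequencing reads over stability bins, variants kept only with over 10 reads, mCherry proximal and sfGFP distal, peptide attached via GGGS linker.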

| Sequence | protein stability index (Saccharomyces cerevisiae [1]; [3]) | protein stability index (Saccharomyces cerevisiae [1]; [4]) | protein stability index (Saccharomyces cerevisiae [1]; [5]) | protein stability index (Saccharomyces cerevisiae [1]; [6]) | protein stability index (Saccharomyces cerevisiae [1]; [7]) | protein stability index (Saccharomyces cerevisiae [1]; [8]) | protein stability index (Saccharomyces cerevisiae [1]; [9]) | protein stability index (Saccharomyces cerevisiae [2]) |
| --- | --- | --- | --- | --- | --- | --- | --- | --- |
| KCKIWFREVSMN | 0.658 ± 0.018 | 0.7475 ± 0.007 | 0.647 ± 0.015 | 0.729 ± 0.06 | 0.1748 ± 0.0015 | 0.216 ± 0.019 | 0.414 ± 0.027 | 0.32 ± 0.066 |
| KGSFDLPTFSLF | 0.726 ± 0.026 | 0.776 ± 0.018 | 0.644 ± 0.026 | 0.769 ± 0.011 | 0.613 ± 0.015 | 0.64 ± 0.031 | 0.7445 ± 0.0073 | 0.504 ± 0.095 |
| KICAVRVIMDWC | 0.459 ± 0.059 | 0.542 ± 0.012 | 0.383 ± 0.044 | 0.566 ± 0.017 | 0.351 ± 0.0053 | 0.379 ± 0.018 | 0.564 ± 0.014 | 0.4769 ± 0.0044 |
| KIKVFHEMVLMC | 0.37 ± 0.059 | 0.587 ± 0.0097 | 0.446 ± 0.031 | 0.628 ± 0.017 | 0.114 ± 0.0016 | 0.139 ± 0.013 | 0.135 ± 0.043 | 0.18 ± 0.0043 |
| KKNKIYKERKNI | 0.702 ± 0.17 |  | 0.6248 ± 0.0028 | 0.7245 ± 0.0029 | 0.203 ± 0.02 | 0.289 ± 0.13 | 0.462 ± 0.064 | 0.434 ± 0.046 |
| KKNTQKKIKLSC | 0.629 ± 0.0068 | 0.733 ± 0.023 | 0.627 ± 0.035 | 0.728 ± 0.045 | 0.15 ± 0.032 | 0.171 ± 0.011 | 0.281 ± 0.021 | 0.358 ± 0.011 |
| KKRYSEIFKKNG | 0.694 ± 0.057 | 0.728 ± 0.025 | 0.637 ± 0.016 | 0.769 ± 0.037 | 0.211 ± 0.033 | 0.254 ± 0.023 | 0.56 ± 0.039 | 0.408 ± 0.05 |
| KLLLTCTFLVFP | 0.448 ± 0.022 | 0.545 ± 0.024 | 0.37 ± 0.032 | 0.555 ± 0.011 | 0.3361 ± 0.003 | 0.369 ± 0.02 | 0.523 ± 0.018 | 0.435 ± 0.0062 |
| KNKRQKNTIRKQ | 0.669 ± 0.017 | 0.682 ± 0.056 | 0.654 ± 0.034 | 0.757 ± 0.089 | 0.2745 ± 0.00035 | 0.346 ± 0.025 | 0.573 ± 0.0086 | 0.463 ± 0.016 |
| KQNKKHKKLKSN | 0.543 ± 0.051 | 0.718 ± 0.051 | 0.66 ± 0.026 | 0.694 ± 0.021 | 0.111 ± 0.0086 | 0.0929 ± 0.018 | 0.182 ± 0.036 | 0.182 ± 0.091 |
| KRLRDFLVIMCS | 0.198 ± 0.024 | 0.2289 ± 0.0013 | 0.24 ± 0.03 | 0.358 ± 0.0079 | 0.112 ± 0.0067 | 0.118 ± 0.019 | 0.098 ± 0.02 | 0.196 ± 0.014 |
| KTLCFLCRTRNS | 0.671 ± 0.025 | 0.73 ± 0.011 | 0.668 ± 0.027 | 0.76 ± 0.013 | 0.387 ± 0.014 | 0.433 ± 0.023 | 0.658 ± 0.017 | 0.52 ± 0.033 |
| KVRVRTTCWRKL | 0.617 ± 0.039 | 0.686 ± 0.038 | 0.625 ± 0.015 | 0.7074 ± 0.0013 | 0.134 ± 0.0059 | 0.155 ± 0.014 | 0.347 ± 0.0065 | 0.255 ± 0.019 |
| KYHLAAQLLVLL | 0.602 ± 0.022 | 0.649 ± 0.015 | 0.531 ± 0.022 | 0.6431 ± 0.0046 | 0.401 ± 0.011 | 0.408 ± 0.0063 | 0.556 ± 0.0067 | 0.459 ± 0.037 |
| LAFAGRCGLYVC | 0.57 ± 0.064 | 0.679 ± 0.016 | 0.583 ± 0.026 | 0.693 ± 0.0075 | 0.289 ± 0.0035 | 0.291 ± 0.021 | 0.452 ± 0.0079 | 0.362 ± 0.053 |
| LAGLFICTLISC | 0.159 ± 0.0021 | 0.176 ± 0.0055 | 0.203 ± 0.023 | 0.2775 ± 0.0013 | 0.185 ± 0.012 | 0.191 ± 0.029 | 0.2449 ± 0.00042 | 0.254 ± 0.071 |
| LASCRIVVIYSI | 0.521 ± 0.029 | 0.52 ± 0.15 | 0.349 ± 0.036 | 0.5746 ± 0.0025 | 0.163 ± 0.0081 | 0.202 ± 0.022 | 0.364 ± 0.029 | 0.33 ± 0.068 |
| LCFEQRYIGVLV | 0.305 ± 0.045 | 0.38376 ± 5e-05 | 0.279 ± 0.035 | 0.4433 ± 0.0021 | 0.227 ± 0.008 | 0.251 ± 0.03 | 0.393 ± 0.018 | 0.372 ± 0.0085 |
| LCFVSTWVWSVG | 0.498 ± 0.055 | 0.5203 ± 0.0015 | 0.395 ± 0.032 | 0.58 ± 0.0085 | 0.368 ± 0.016 | 0.401 ± 0.01 | 0.569 ± 0.007 | 0.474 ± 0.037 |
| LCWLCIRWSRVV | 0.368 ± 0.044 | 0.543 ± 0.023 | 0.443 ± 0.017 | 0.589 ± 0.013 | 0.0721 ± 0.015 | 0.0746 ± 0.012 | 0.085 ± 0.02 | 0.152 ± 0.0052 |

| Sequence | protein stability index (Saccharomyces cerevisiae [1]; [3]) | protein stability index (Saccharomyces cerevisiae [1]; [4]) | protein stability index (Saccharomyces cerevisiae [1]; [5]) | protein stability index (Saccharomyces cerevisiae [1]; [6]) | protein stability index (Saccharomyces cerevisiae [1]; [7]) | protein stability index (Saccharomyces cerevisiae [1]; [8]) | protein stability index (Saccharomyces cerevisiae [1]; [9]) | protein stability index (Saccharomyces cerevisiae [2]) |
| --- | --- | --- | --- | --- | --- | --- | --- | --- |
| LDIFRKLVIVLC | 0.0767 ± 0.013 | 0.0777 ± 0.02 | 0.18 ± 0.033 | 0.2628 ± 0.00073 | 0.102 ± 0.027 | 0.107 ± 0.025 | 0.0878 ± 0.0015 | 0.169 ± 0.07 |
| LEALRFTFYHFF | 0.683 ± 0.038 | 0.7891 ± 0.0068 | 0.615 ± 0.016 | 0.788 ± 0.029 | 0.203 ± 0.0091 | 0.222 ± 0.018 | 0.41 ± 0.014 | 0.34252 ± 7.1e-06 |
| LEGRVLRIFCVT | 0.496 ± 0.0051 | 0.593 ± 0.03 | 0.49 ± 0.0052 | 0.651 ± 0.018 | 0.191 ± 0.011 | 0.212 ± 0.024 | 0.37 ± 0.048 | 0.263 ± 0.057 |
| LFFRCVFRISFF | 0.274 ± 0.015 | 0.266 ± 0.0095 | 0.302 ± 0.03 | 0.387 ± 0.006 | 0.351 ± 0.027 | 0.254 ± 0.015 | 0.331 ± 0.0072 | 0.327 ± 0.0064 |
| LFGIDIVITYLL | 0.31 ± 0.011 | 0.459 ± 0.064 | 0.315 ± 0.036 | 0.441 ± 0.017 | 0.284 ± 0.015 | 0.304 ± 0.019 | 0.392 ± 0.026 | 0.398 ± 0.011 |
| LFILRPVVGVLN | 0.531 ± 0.034 | 0.53 ± 0.021 | 0.402 ± 0.035 | 0.555 ± 0.0077 | 0.368 ± 0.012 | 0.408 ± 0.016 | 0.528 ± 0.008 | 0.495 ± 0.053 |
| LFIWFVSSPFYC | 0.517 ± 0.025 | 0.5998 ± 0.0054 | 0.451 ± 0.017 | 0.63068 ± 0.0006 | 0.3134 ± 0.0029 | 0.343 ± 0.033 | 0.547 ± 0.01 | 0.452 ± 0.023 |
| LFIYSVCSYYYE | 0.31 ± 0.037 | 0.411 ± 0.053 | 0.269 ± 0.038 | 0.461 ± 0.049 | 0.227 ± 0.0051 | 0.283 ± 0.016 | 0.418 ± 0.068 | 0.349 ± 0.0058 |
| LFRLPSPLLFFL | 0.559 ± 0.0067 | 0.611 ± 0.029 | 0.558 ± 0.025 | 0.6643 ± 0.0018 | 0.4911 ± 0.0026 | 0.429 ± 0.025 | 0.53 ± 0.016 | 0.484 ± 0.028 |
| LFSAFFPLLFLS | 0.291 ± 0.022 | 0.353 ± 0.0036 | 0.436 ± 0.044 | 0.572 ± 0.02 | 0.107 ± 0.014 | 0.0848 ± 0.0096 | 0.0875 ± 0.00095 | 0.112 ± 0.013 |
| LFYATRLLFLCI | 0.415 ± 0.034 | 0.432 ± 0.028 | 0.411 ± 0.053 | 0.5185 ± 0.0026 | 0.34042 ± 0.00025 | 0.3 ± 0.023 | 0.4454 ± 0.002 | 0.367 ± 0.0039 |
| LGHSLVRFVYCF | 0.46 ± 0.023 | 0.498 ± 0.024 | 0.411 ± 0.025 | 0.538 ± 0.011 | 0.349 ± 0.0072 | 0.357 ± 0.029 | 0.468 ± 0.016 | 0.451 ± 0.0073 |
| LGVGVVPEFFVV | 0.659 ± 0.028 | 0.729 ± 0.014 | 0.592 ± 0.022 | 0.723 ± 0.023 | 0.332 ± 0.022 | 0.374 ± 0.022 | 0.527 ± 0.0086 | 0.464 ± 0.0065 |
| LLFVVGTGRWVG | 0.665 ± 0.022 | 0.736 ± 0.011 | 0.629 ± 0.029 | 0.744 ± 0.024 | 0.159 ± 0.0042 | 0.183 ± 0.033 | 0.482 ± 0.035 | 0.302 ± 0.046 |
| LLHSLILLEWVF | 0.148 ± 0.01 | 0.146 ± 0.02 | 0.19 ± 0.032 | 0.267 ± 0.011 | 0.145 ± 0.013 | 0.182 ± 0.02 | 0.238 ± 0.0042 | 0.272 ± 0.021 |
| LLIFGLLAVPSP | 0.585 ± 0.0093 | 0.587 ± 0.023 | 0.448 ± 0.028 | 0.569 ± 0.0093 | 0.443 ± 0.031 | 0.457 ± 0.013 | 0.542 ± 0.042 | 0.4771 ± 0.0012 |
| LLLAMLLWVSTM | 0.422 ± 0.0061 | 0.361 ± 0.11 | 0.305 ± 0.034 | 0.483 ± 0.02 | 0.2826 ± 0.0026 | 0.306 ± 0.021 | 0.455 ± 0.038 | 0.388 ± 0.0058 |
| LLLFLLLPPFPF | 0.543 ± 0.034 | 0.59 ± 0.006 | 0.449 ± 0.025 | 0.604 ± 0.026 | 0.437 ± 0.028 | 0.445 ± 0.019 | 0.57 ± 0.0068 | 0.504 ± 0.025 |
| LLLLLPLYLLPI | 0.24 ± 0.031 | 0.177 ± 0.037 | 0.31 ± 0.035 | 0.412 ± 0.021 | 0.553 ± 0.035 | 0.322 ± 0.017 | 0.368 ± 0.0062 | 0.372 ± 0.048 |
